The record followed here is publication PMC7060200, “Selective Binding of HSC70 and its Co-Chaperones to Structural Hotspots on CFTR” (Scientific Reports, 2020).

What all share (conditions): both partners purified
Experiment [1] concerns the target T1, DNAJA2 (DJA2), His-tagged (UniProt O60884 1-412).
T1 construct: DNAJA2, J-domain co-chaperone of HSC70
The experiment can be described thus: ELISA; competition: 1 μM chaperone mixed with soluble peptide (titrated up to 100 μM, or fixed 100 μM in the screens) and bound to immobilised 1097-L; Kd of the competing peptide from linearised competition curves. For orientation: In an ELISA, binding on a coated surface is turned into a signal by an enzyme label.

Experiment [2] has as its target T2, HSC70 (HSPA8), His-tagged (UniProt P11142 1-646).
T2 construct: HSC70 (HSPA8), the constitutive form of HSP70
Described as above.

Experiment [3] has as its target T3, DNAJA1 (DJA1), His-tagged (UniProt P31689 1-397).
T3 construct: DNAJA1, J-domain co-chaperone of HSC70
Described as above.

In experiment [4] the target is T3, DNAJA1 (DJA1), His-tagged. The experiment can be described thus: ELISA; titration of increasing concentrations of chaperone on immobilised biotinylated peptide; HSC70 with ATP; apparent Kd from linearised binding curves.
For experiment [5], the target named is T1, DNAJA2 (DJA2), His-tagged. Described as above.
For experiment [6], the target named is T2, HSC70 (HSPA8), His-tagged. The experiment is described as above.

Ends that are not written are not given here. * marks the point of attachment. Biotin = O=C1N[C@H]2[C@H](CS[C@H]2CCCCC(=O)*)N1

T1 sequence (O60884 whole entry): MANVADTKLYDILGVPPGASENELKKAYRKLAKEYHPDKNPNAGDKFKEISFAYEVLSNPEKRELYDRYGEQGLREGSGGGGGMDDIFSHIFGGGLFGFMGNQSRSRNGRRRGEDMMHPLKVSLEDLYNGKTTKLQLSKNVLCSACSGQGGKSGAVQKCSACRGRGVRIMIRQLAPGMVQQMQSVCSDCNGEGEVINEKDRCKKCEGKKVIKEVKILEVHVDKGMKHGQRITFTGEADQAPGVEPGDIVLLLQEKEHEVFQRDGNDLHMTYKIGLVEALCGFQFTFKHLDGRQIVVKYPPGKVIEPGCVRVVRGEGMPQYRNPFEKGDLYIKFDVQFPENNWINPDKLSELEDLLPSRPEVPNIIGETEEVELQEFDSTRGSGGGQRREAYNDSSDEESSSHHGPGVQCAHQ
T2 sequence (P11142 whole entry): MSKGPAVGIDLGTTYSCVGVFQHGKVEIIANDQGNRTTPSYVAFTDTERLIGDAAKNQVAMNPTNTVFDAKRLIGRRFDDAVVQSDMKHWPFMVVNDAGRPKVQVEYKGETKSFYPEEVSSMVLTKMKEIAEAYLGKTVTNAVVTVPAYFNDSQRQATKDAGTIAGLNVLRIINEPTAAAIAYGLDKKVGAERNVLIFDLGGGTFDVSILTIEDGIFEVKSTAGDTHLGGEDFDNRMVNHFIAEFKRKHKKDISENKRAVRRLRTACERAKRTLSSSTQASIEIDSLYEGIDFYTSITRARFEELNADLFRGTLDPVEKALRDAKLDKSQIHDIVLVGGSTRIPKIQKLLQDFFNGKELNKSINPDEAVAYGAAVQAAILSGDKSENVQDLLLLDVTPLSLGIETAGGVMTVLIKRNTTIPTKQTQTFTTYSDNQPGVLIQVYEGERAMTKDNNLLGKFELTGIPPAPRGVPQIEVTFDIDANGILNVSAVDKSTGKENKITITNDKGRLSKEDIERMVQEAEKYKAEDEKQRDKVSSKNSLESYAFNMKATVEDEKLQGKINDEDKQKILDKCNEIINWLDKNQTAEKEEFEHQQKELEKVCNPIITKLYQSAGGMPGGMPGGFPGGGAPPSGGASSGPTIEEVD

B1: CFTR peptide 1100-S (peptide, UniProt P13569 1096-1104, looked up)
peptide: LRWFQMRIE
notes: CFTR, 9-mer numbered by its central residue 1100, L4 side of the NT-L4 interface; source: synthetic peptide (Lifetein, unmodified, >85% purity)
For the molecule B1, the Kd in experiment [1] is 8.33 µM.

B2: CFTR peptide 17-S (peptide, UniProt P13569 13-21, looked up)
peptide: SKLFFSWTR
notes: CFTR, 9-mer numbered by its central residue 17, from the NT; source: synthetic peptide (Lifetein, unmodified, >85% purity)
B2 gave a Kd in experiment [2] of 1760 nM.

B3: CFTR peptide 1398-S (peptide, UniProt P13569 1394-1402, looked up)
peptide: DCTVILCEH
notes: source: synthetic peptide (Lifetein, unmodified, >85% purity)
For the molecule B3, the Kd in experiment [3] stood at 18.3 µM; in experiment [1] it was 4.45 µM; in experiment [2] it was 900 nM.

B4: CFTR peptide 1393-L, soluble unmodified (peptide, UniProt P13569 1386-1400, looked up)
peptide: RTLKQAFADCTVILC
notes: CFTR, 15-mer numbered by its middle residue 1393, from NBD2; source: synthetic peptide (Lifetein, unmodified, >85% purity)
For B4, the results for the Kd in experiment [3], in experiment [1] and in experiment [2] were 15.7 µM, 1.49 µM and 1040 nM, respectively.

B5: CFTR peptide 1403-L, soluble unmodified (peptide, UniProt P13569 1396-1410, looked up)
peptide: TVILCEHRIEAMLEC
notes: CFTR, 15-mer numbered by its middle residue 1403, from NBD2; source: synthetic peptide (Lifetein, unmodified, >85% purity)
For B5, the Kd in experiment [3] was found to be 9.15 µM; in experiment [1], 0.994 µM; in experiment [2], 2660 nM.

B6: CFTR peptide 469-S (peptide, UniProt P13569 465-473, looked up)
peptide: TSLLMVIMG
notes: as for B3
B6: the values for the Kd in experiment [1] and in experiment [2] were 4.82 µM and 1560 nM, respectively.

B7: CFTR peptide 1295-S (peptide, UniProt P13569 1291-1299, looked up)
peptide: QKVFIFSGT
notes: as for B3
As to B7, the Kd in experiment [2] came to 1260 nM.

B8: CFTR peptide 1393-L, biotinylated (library form) (peptide)
peptide: Biotin-GSGSRTLKQAFADCTVILC
modifications: cysteine pairing not given here
notes: linker; CFTR, 15-mer numbered by its middle residue 1393, from NBD2; source: synthetic peptide (Mimotopes, PepSet purity)
On to B8, for which the Kd in experiment [4] came out at 1500 nM; in experiment [5] it was 1120 nM; in experiment [6], 9.06 µM.

B9: CFTR peptide 1403-L, biotinylated (library form) (peptide)
peptide: Biotin-GSGSTVILCEHRIEAMLEC
modifications: cysteine pairing not given here
notes: linker; CFTR, 15-mer numbered by its middle residue 1403, from NBD2; source: synthetic peptide (Mimotopes, PepSet purity)
Take B9: the Kd in experiment [4] stood at 1490 nM; in experiment [5], 1190 nM; in experiment [6], 11.1 µM.

B10: CFTR peptide 618-S (peptide, UniProt P13569 614-622, looked up)
peptide: DKILILHEG
notes: as for B3
B10: the Kd in experiment [2] worked out at 3730 nM.

B11: CFTR peptide 1293-L, soluble unmodified (peptide, UniProt P13569 1286-1300, looked up)
peptide: FGVIPQKVFIFSGTF
notes: as for B3
B11: the Kd in experiment [2] came out at 2020 nM.
